From patent US20250368742A1 (D2M BIOTHERAPEUTICS, published 2025)
Like-named read-outs stand apart in the source and are kept apart here.

B5: MICB005-ECD-HISAvi (ligand)
chain: EPHSLRYNLMVLSQDGSVQSGFLAEGHLDGQPFLRYDRQKRRAKPQGQWAEDVLGAKTWDTETEDLTENGQDLRRTLTHIKDQKGGLHSLQEIRVCEIHEDSSTRGSRHFYYDGELFLSQNLETQESTVPQSSRAQTLAMNVTNFWKEDAMKTKTHYRAMQADCLQKLQRYLKSGVAIRRTVPPMVNVTCSEVSEGNITVTCRASSFYPRNITLTWRQDGVSLSHNTQQWGDVLPDGNGTYQTWVATRIRQGEEQRFTCYMEHSGNHGTHPVPSGKALVLQSQRTDHHHHHHGLNDIFEAQKIEWHE
notes: Two sources under one name in the two kinetic assays; also called MICB005 polypeptide
B6: MICA008-ECD-HISAvi (ligand)
chain: EPHSLRYNLTVLSWDGSVQSGFLAEVHLDGQPFLRYDRQKCRAKPQGQWAEDVLGNKTWDRETRDLTGNGKDLRMTLAHIKDQKEGLHSLQEIRVCEIHEDNSTRSSQHFYYDGELFLSQNLETEEWTVPQSSRAQTLAMNVRNFLKEDAMKTKTHYHAMHADCLQELRRYLESGVVLRRTVPPMVNVTRSEASEGNITVTCRASSFYPRNIILTWRQDGVSLSHDTQQWGDVLPDGNGTYQTWVATRICRGEEQRFTCYMEHSGNHSTHPVPSGKVLVLQSHWQHHHHHHGLNDIFEAQKIEWHE
notes: Two sources under one name in the two kinetic assays; also called MICA008 polypeptide
B7: MICA002-ECD-HISAvi (ligand)
chain: EPHSLRYNLTVLSGDGSVQSGFLAEVHLDGQPFLRCDRQKCRAKPQGQWAEDVLGNKTWDRETRDLTGNGKDLRMTLAHIKDQKEGLHSLQEIRVCEIHEDNSTRSSQHFYYDGELFLSQNLETEEWTMPQSSRAQTLAMNVRNFLKEDAMKTKTHYHAMHADCLQELRRYLKSGVVLRRTVPPMVNVTRSEASEGNITVTCRASGFYPWNITLSWRQDGVSLSHDTQQWGDVLPDGNGTYQTWVATRICQGEEQRFTCYMEHSGNHSTHPVPSGKVLVLQSHWQHHHHHHGLNDIFEAQKIEWHE
notes: also called MICA002 polypeptide

How the values were obtained:
MICA002-ECD-HISAvi [1] = biological target: B7; assay: SPR (Carterra); antibody captured by anti-human Fc, monomeric ECD antigen injected
Protocol: (§1) The dissociation kinetics were monitored for approximately 10 minutes. The chip surface was regenerated between binding cycles with 10 mM glycine HCl, pH 1.7. Binding kinetics were analyzed using software supplied by the manufacturer.

MICA004-ECD-HISAvi [2] = biological target: T1, MICA004-ECD-HISAvi (human); assay: as above
T1 construct: also called MICA004 polypeptide
T1 chain: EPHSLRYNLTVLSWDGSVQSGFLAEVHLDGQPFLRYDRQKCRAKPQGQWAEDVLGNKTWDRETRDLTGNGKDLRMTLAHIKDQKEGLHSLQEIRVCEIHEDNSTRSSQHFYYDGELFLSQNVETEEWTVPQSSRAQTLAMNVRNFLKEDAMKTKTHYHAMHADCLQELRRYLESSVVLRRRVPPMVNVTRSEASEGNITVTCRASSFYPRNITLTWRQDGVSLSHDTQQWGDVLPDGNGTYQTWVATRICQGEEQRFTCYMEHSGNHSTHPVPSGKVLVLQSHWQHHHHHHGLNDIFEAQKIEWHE
Protocol: as §1

MICA008-ECD-HISAvi [3] = biological target: B6; assay: as above
Protocol: as §1

MICB005-ECD-HISAvi [4] = biological target: B5; assay: as above
Protocol: as §1

human MICA004 on cells [5] = biological target: T2, human MICA004 on cells (human); assay: flow cytometry, CHO-MICA004 cells
T2 construct: whole, on cells; also called CHO-MICA004; C1R-MICA004

MICA002-ECD-HISAvi [6] = biological target: B7; assay: BLI (GatorPrime); antibody on anti-hIgG Fc probe, monomeric antigen in solution;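 also: binding kinetics of anti-MICA/B antibodies measured by biolayer interferometry, with dissociation followed for about 10 min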
MICA004-ECD-HISAvi [7] = biological target: T1, MICA004-ECD-HISAvi; assay: as above
MICA009Avi = biological target: T3, MICA009Avi (human); assay: as above
T3 construct: extracellular domain

MICA008-ECD-HISAvi [8] = biological target: B6; assay: as above
MICB005-ECD-HISAvi [9] = biological target: B5; assay: as above
[10] = biological target: T4, Cynomolgus monkey MICA (cynoMICA) (Cynomolgus monkey (Macaca fascicularis)); assay: as above
T4 construct: also called cyno monkey MICA; cyno MIC protein

human MICA008 on cells [11] = biological target: T5, human MICA008 on cells (human); assay: flow cytometry, CHO-MICA008 cells
T5 construct: whole, on cells; also called CHO-MICA008; C1R-MICA008
Protocol: (§2) IgG1 is an isotype control (IgG). The antibody binding signals of APC (gMFI) to MICA/B were measured by flow cytometry.
(§3) After an incubation time of 30 minutes, the plate was centrifuged and cells were washed with PBS three times. […] After mixing for 30 minutes at room temperature, cells were washed with PBS twice. Fluorescent signal was detected and quantified by flow cytometry (Attune™ CytPix™, ThermoFisher) within the population of live cells (viability dye PI negative).

human MICB005 on cells [12] = biological target: T6, human MICB005 on cells (human); assay: flow cytometry, CHO-MICB005 cells
T6 construct: whole, on cells; also called CHO-MICB005; C1R-MICB005

human MICA008 on cells [13] = biological target: T5, human MICA008 on cells; assay: flow cytometry, HeLa cells (MICA008)
Protocol: as §2, §3

MICA002-ECD-HISAvi [14] = biological target: B7; assay: SPR (Carterra); antibody captured by anti-human Fc, monomeric ECD antigen injected
Protocol: as §1

MICA004-ECD-HISAvi [15] = biological target: T1, MICA004-ECD-HISAvi; assay: as above
Protocol: as §1

MICA008-ECD-HISAvi [16] = biological target: B6; assay: as above
Protocol: as §1

MICB005-ECD-HISAvi [17] = biological target: B5; assay: as above; remark: listed apart in the source
Protocol: as §1

human MICA002 on cells [18] = biological target: T7, human MICA002 on cells (human); assay: flow cytometry, CHO-MICA002 cells
T7 chain: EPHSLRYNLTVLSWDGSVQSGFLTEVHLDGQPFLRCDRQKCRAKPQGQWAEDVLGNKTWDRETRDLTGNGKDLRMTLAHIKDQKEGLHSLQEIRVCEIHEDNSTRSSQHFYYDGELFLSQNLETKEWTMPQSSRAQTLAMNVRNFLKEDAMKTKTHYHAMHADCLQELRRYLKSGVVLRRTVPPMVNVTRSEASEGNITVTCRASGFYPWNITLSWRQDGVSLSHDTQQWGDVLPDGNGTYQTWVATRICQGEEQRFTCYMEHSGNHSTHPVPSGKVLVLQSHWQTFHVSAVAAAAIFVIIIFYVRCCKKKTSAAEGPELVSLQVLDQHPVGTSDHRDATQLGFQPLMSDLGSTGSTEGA
Protocol: CHO-MICA002 cells were incubated with titrated anti-MICA/B antibodies and then APC-labeled anti-human Fc antibody. […] The antibody binding signals of APC (gMFI) to MICA/B were measured by flow cytometry.
as §3

human MICA002 on cells [19] = biological target: T7, human MICA002 on cells; assay: flow cytometry, CHO-MICA002 cells
human MICA004 on cells [20] = biological target: T2, human MICA004 on cells; assay: flow cytometry, CHO-MICA004 cells; remark: listed apart in the source
human MICB005 on cells [21] = biological target: T6, human MICB005 on cells; assay: flow cytometry, CHO-MICB005 cells; remark: listed apart in the source
human MICA002 on cells [22] = biological target: T7, human MICA002 on cells; assay: flow cytometry, CHO-MICA002 cells
human MICA002 on cells [23] = biological target: T7, human MICA002 on cells; assay: flow cytometry, CHO-MICA002 cells
NKG2D-His = biological target: T8, NKG2D-His (UniProt P26718 78-216, limits assumed); assay: ELISA: NKG2D-His coated, MICA/B-ECD titrated, detection 1D5 + anti-hFc-HRP
T8 sequence (looked up): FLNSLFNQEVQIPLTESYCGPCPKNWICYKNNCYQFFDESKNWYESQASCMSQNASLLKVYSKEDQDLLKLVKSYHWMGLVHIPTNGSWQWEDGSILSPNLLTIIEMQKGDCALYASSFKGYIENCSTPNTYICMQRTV

T5 sequence (Q29983 whole entry): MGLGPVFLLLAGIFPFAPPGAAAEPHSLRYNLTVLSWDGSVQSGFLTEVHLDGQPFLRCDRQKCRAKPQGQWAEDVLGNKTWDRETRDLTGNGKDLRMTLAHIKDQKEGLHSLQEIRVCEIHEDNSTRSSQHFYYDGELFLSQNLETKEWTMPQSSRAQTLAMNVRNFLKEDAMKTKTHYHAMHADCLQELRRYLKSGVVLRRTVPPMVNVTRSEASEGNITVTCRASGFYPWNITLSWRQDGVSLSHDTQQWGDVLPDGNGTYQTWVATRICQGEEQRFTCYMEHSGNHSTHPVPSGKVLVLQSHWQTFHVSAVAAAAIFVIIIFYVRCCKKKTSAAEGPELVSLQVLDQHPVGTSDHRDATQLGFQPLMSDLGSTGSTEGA
T2 sequence (Q29983 whole entry): as above

B1: 13A9 (antibody, human IgG1, kappa, V domains shown)
VH: QVQLQQSGAELVRPGTSVKVSCKASGYAFTNYLIEWVKQRPGQGLEWIGAINPGSGATNYNEKFKDKARLTADKSSNTAYLQFSSLTSDDSAVYFCARFLGNYFDNWGQGATLTVSS
VL: DIQMTQSPASLSASVGETVTITCRASGNIHSYLAWYQQKQGKSPQLLVYYAETLADGVPSRFSGRGSGTQYSLKINSLQPEDFGSYFCQQFWTTPYTFGGGTKVEIKR
For B1, the Kd (MICA002-ECD-HISAvi [1]) was 1.67 nM, the Kd (MICA004-ECD-HISAvi [2]) was 5.02 nM and the Kd (MICA008-ECD-HISAvi [3]) was 23.2 nM. It also gave a Kd (MICB005-ECD-HISAvi [4]) of 4.38 nM, an EC50 (human MICA004 on cells [5]) of 7.25 µg/mL and a Kd (MICA002-ECD-HISAvi [6]) of 0.0956 nM. For the same binder, the Kd (MICA004-ECD-HISAvi [7]) was 1.39 nM, the Kd (MICA009Avi) was 0.262 nM and the Kd (MICA008-ECD-HISAvi [8]) was 0.504 nM. The Kd (MICB005-ECD-HISAvi [9]) was 0.425 nM, the Kd [10] was 13.9 nM and the EC50 (human MICA008 on cells [11]) was 2.08 µg/mL. It also gave an EC50 (human MICB005 on cells [12]) of 1.71 µg/mL, an EC50 (human MICA008 on cells [13]) of 4.09 µg/mL and a Kd (MICA002-ECD-HISAvi [14]) of 0.313 nM. It also gave a Kd (MICA004-ECD-HISAvi [15]) of 12.8 nM, a Kd (MICA008-ECD-HISAvi [16]) of 1 nM and a Kd (MICB005-ECD-HISAvi [17]) of 0.486 nM. It also gave an EC50 (human MICA002 on cells [18]) of 3.56 µg/mL.

B2: h36B3GA (antibody, V domains shown)
VH: QVQLVQSGAEVKKPGASVKVSCKASGYAFTKYNFYWVRQAPGQGLEWIGYIDPYFGGTVYNQKFKGKATLTVDKSTSTAYMELRSLRSDDTAVYYCATTDAYSLFTYWGQGTLVTVSS
VL: DIQMTQSPSSLSASVGDRVTITCRASQDISNYLNWYQQTPGKAVKLLIYYTSRLHSGVPSRFSGSGSGTDYTLTISSLQPEDIATYFCLQGNTLPFTFGQGTKLEIK
notes: humanized #36 variant; the text writes h36B3(GA); copies: 2 + 2
With B2 the “EC50 (read off the curve)” value (human MICA002 on cells [19]) was ~0.6 µg/mL.

B3: D2M001-001 (antibody, V domains shown)
VH: QVQLVQSGAEVKKPGSSVKVSCKASGYTFSHHSISWVRQAPGQGLEWIGGIYPGKIKTNYAQKFQGRATLTADKSTSTAYMELSSLRSEDTAVYYCATLYGNYEAYWGQGTLVTVSS
VL: DIQMTQSPSSLSASVGDRVTITCRASENIYGALNWYQQKPGKSPKLLIYGTTSLQSGVPSRFSGSGSGRDYTLTISSLQPEDFATYYCQNVLTTPPWTFGGGTKVEIK
notes: only the CDRs are tied to the name in the text; copies: 2 + 2
In the case of B3, the EC50 (human MICA004 on cells [20]) is reported as 7.12 µg/mL, the EC50 (human MICB005 on cells [21]) is reported as 2.77 µg/mL and the EC50 (human MICA002 on cells [22]) is reported as 1.26 µg/mL. For the same binder, the Kd (MICA002-ECD-HISAvi [14]) was 61.4 nM, the Kd (MICA004-ECD-HISAvi [15]) was 156 nM and the Kd (MICA008-ECD-HISAvi [16]) was 255 nM. The Kd (MICB005-ECD-HISAvi [17]) was 158 nM.

B4: h36B3GS (antibody, V domains shown)
VH: QVQLVQSGAEVKKPGASVKVSCKASGYAFTKYNFYWVRQAPGQGLEWIGYIDPYFGGTVYNQKFKGKATLTVDKSTSTAYMELRSLRSDDTAVYYCATTDSYSLFTYWGQGTLVTVSS
VL: DIQMTQSPSSLSASVGDRVTITCRASQDISNYLNWYQQTPGKAVKLLIYYTSRLHSGVPSRFSGSGSGTDYTLTISSLQPEDIATYFCLQGNTLPFTFGQGTKLEIK
notes: humanized #36 variant; the text writes h36B3(GS); copies: 2 + 2
Work on B4 yielded an EC50 (human MICA002 on cells [23]) of 0.6 µg/mL.

In the case of B5, the “EC50 (read off the curve)” value (NKG2D-His) is reported as ~0.02 µg/mL.

B6 was tested, and the “EC50 (read off the curve)” value (NKG2D-His) was ~0.1 µg/mL.

B7 was tested, and the “EC50 (read off the curve)” value (NKG2D-His) was ~0.2 µg/mL.
